Assay: label from the status in PepcDB records

Sequence	protein production
MAYFYLAEAGDWSFRTVWHDRFFTVLKHHPARTEKVEQADYIFLDADFALETNWPYYGSQRKAILKGDRFPTDEEILAFLFDHPVSGYGKPLVLINMNPLAQWPAIAQVLPDVVVVSHCHTLGNYRVGIDVSFPPMPLLDQHCYPSRDRSTLLSFRGANSHPVREQLQRLHQPPEIAAELIQQSYWGTLNYVDEAEGLSAEQQVYTDLIARSRFSVAPRGHDIFSYRLLEVMAGGAIPVILADDWVLPFSELLDWSEFSLSVAEDRCWELPQLLQAISTDQWQVMQQHLQQVYQHYFYSLARQVQTLWQILDQRSLHPSASEVEIEAVLLSQAERYRLKGDLEAAATYLATLPRSPARILEQARLALTQQQPKAALALLDSMVMPEAEQGEHYNLLGVAQTQLGEWDTAIAIYRQGLQAQPHHPKLRTNLCVALRQQEQWEEALALSQALLEEVPAAIDRLLLQADTLNLAGRYDQALSLYQQVVAREPERANAQLAIAEILLRQGKAEGWDIYEARFAAEPSLAALAAHYPQPRWQGVELGQRSLLVWGEQGYGDQIQFSRYLWVLRDRYPQARIQFQTDAVLVPLFAEPLASLGIKVIPAQITEELFDFQVPLLSLPRLVWPSLKDIPYREGWLPCPLPPPREDQNHKFRVGIVWLAGQRAGIQKSATADRRSCSLEAMLELVRESMQRSDLEVVSLQLGYEGRLPEGIQDWSNRLVDFSATARVLMELDLLVTVDTAIVHLAGAMGTPAKVLLAYPPDWRWQQNLELTWYSSIELCYFAHLLSSF	failed
MAYNSNSNNNNNNIVVVFDFDKTIIDVDSDNWVIDELGFTDLFNQLLPTMPWNTLMDRMMKELHDQGKTIEEIKQVLRTIPIHPRVVPAIKSAHDLGCELRIVSDANMFFIETIVEHLGISELFSEINSNPGYVDERGTLKISPYHDFTKSPHSCSCGTCPPNMCKGLIIERIQQSLAKEGKKKMIYLGDGAGDYCPSLKLNTEDYVMPRKNFPVWDLISQNPMLIKAAIREWTDGQSMEMILIGTIEEIRLEEEKEKMLTSAENNCKMQTISIGINNVHHEPILPRALRVSQSS	failed
MAYVSMGEAHRRITEYLNRFCDAVSYQDSSTLCRLLSFSSNSPPLLSLADALNVFQDSSSLIRQSDRFSEYGEILAHVFRSLQSYRVGNLVEAYLAFDKFANAFVQEFRNWESAWALEALYVVCYEIRVLAEKADKDLTSNGKSPEKLKAAGSLLMKVFGVLAGKGPKRVGALYVTCQLFKTYFKLGTVNLCRSVIRSIETARIFDFEEFPRRDKVTYMYYTGRLEVFNENFPAADTKLSYALQNCNPKRERNIRMILKYLVPVKLSLGIIPKDELLRNYNLHEYTKIVQALRKGDLRLLRHALQEHEDRFLRSGVYLVLEKLELQVYQRLMKKIYINQKLSDPARAHQLKLEGIAKALRWLDMDMDLDEVECIMTILIYKNLVKGYLAHKSKVVVLSKQDPFPKLNGKPVSS	failed
MCEGRRAAFQAVDNCSSGNALTSKCGEKEAGVAGDAATSPKGLTWDPAQCFYSPACNAENITSKNRSPALLSRPHAQPGESERLITVLSNRDRKASPGAAGDSGLGGASPSGRGRDGTRGWGENWLPPPAAPQATSACSGAGSGAVGAARPCSSRELAVVGGGGDASGGCVGCRAGDRTAAPSSRCPEPTWSNCSEATAPAHTGEEAAVAAVAAAPAMLCYVTRPDAVLMEVEVEAKANGEDCLNQVCRRLGIIEVDYFGLQFTGSKGESLWLNLRNRISQQMDGLAPYRLKLRVKFFVEPHLILQEQTRHIFFLHIKESLLAGHLQCSPEQAVELSALLAQTKFGDYNQNTAQYSYEDLCEKELSSSTLNSIVGKHKELEGISQASAEYQVLQIVSAMENYGIEWHAVRDSEGQKLLIGVGPEGISICKEDFSPINRIAYPVVQMATQSGKNVYLTVTKESGNSIVLLFKMISTRAASGLYRAITETHAFYRCDTVTSAVMMQYSRDLKGHLASLFLNENINLGKKYVFDIKRTSKEVYDHARRALYNAGVVDLVSRNDQSPPSSPLKSSDSSMSCSSCEGLSCQQTRVLQEKLRKLKEAMLCMVCCEEEINSTFCPCGHTVCCESCAAQLQSCPVCRSRVEHVQHVYLPTHTSLLNLTVI	failed
MCGSERFQFRSGAKPLIRGRPLDSDMESLHPRVRLLWVLSTVIQASVLGVIAYLVDRFAVSLPQTVVVGGWVVLVLLGVAHAIAAHRIWRFDLQDDALFLLRGVVTRTDTSVPYVRVQHVDTTRGPVERAIGLASVVVYTAGTRGADITIPGLRPERATELREQLRDLANESEATDAV	failed
MCHQLSKKTKKALDQELKRKTTLKNNLFSRYLLFRYSLALFFFVNLYWTFPLIYKPSVYVILPVSLLILIVLACAEQFKLYSLQEVYLRNTERVFKTQIVVQILLLIINIFPQQLSVAIPFFSNNMAAHVFLAVFQFLGLFICWYNLKRIKQIKNNEDKFYNRFYNHIEKYI	failed
MCIGMDIRDFFAQSAGRWFSQRTSHHLAFKQTESGKSQLTIELLSVDDPAVIALCQQYDMDPAWAVCGARVSWDGTMEWDNEKHEGSTVLVPIMDQGSRMEGKLLREMGYAEKAPVAGRFSMGSDGALTLITEYETIYSEERLWFASPNLRLRTSILKRFGGFSMASFCSEIRLGVTQPANSLEHHHHHH	not failed
MCLALPAQIDQVLEDNKAIVNLGGITKEISTVLLEQVSEGEYVIIHAGFALTKLDEREANKTLSLFAHMLKDG	not failed
MCNETWQSRAEEYIDDSRRLGYALTTTSAYLLSFARFVDQRGHSGALTSDIILDWAQSTDSKKPTTWTKRLINIRRFISHCSRVDGKSEVPRVDVFGRPKGRPTPHIYTELEISELLAAARELPGTLPSATYETLFGLLASTGLRLSEALHLRCSDVDLRSGRLIVRQGKLGKSRLVPLHATVCEVLSRYLGVRQQLPLTSESYFFVSQTGGLLPRRTVEGVFIRLRTKLGWAPRGNWRAPRIHDLRHTFICRRVTQWHKEGADIDNAMLYVSTYVGHVAVTYTYWYLTGIPELMTVVGQRFEAFAESARGAENAE	failed
MCPEFQRKAAGAPRMGAMLARCVLTAALALQAAAAARAVEIEIGVASRGVVDGLEFVQFSADERTMATTHWGNVVHLWDLKTLRVRSSVSVANRDFDFDLSPDGRALAVWNEEGKGEIELYDTDNGQPARALPAPRLPQGESRRGRSLVYRDDGTLEFVSHGWIGGHARKAYLLAVPAGQPRAAETPLPALVNSVAFRKSAVMDQGRLLLAGVDGADDELAIMDIASGRMLAREPGFRIASYAADARRAVFVEADGKQRILAFDFSSRSLSTLPRWTGSGKFQPYRFVAGTRFLVLAPDEPDASTRRAAPGIYDLQTRRLHRLPPDADPGSIDVWGATASYVLCNPDHTACQAEVADLAISRKLGTFAVQPSADFRTWISPSGSMVVVGGADDGTMMVWSVKEQRVIGPN	failed
MCQMPCQFSWPYTHYFTQTKNKEKILNKLIVFTGGPGAGKTSVIEQLKTQGFICAPETGRHVIQMQVANHGSALPWNDKQAFRDEMTKEEVSNYRSFNVRQGDVFFDRSIVDVYGYSKLEQLPISHELITHCQTLRYHSQVFIFPPWASIFSNDEERKQDFSEAVATYQQMVDAYHKFGYQLIEVPKMSVEDRVAFILGSVIELEHHHHHH	not failed
MCQSNQIVSHFLSHRNVTNELAEKISKDHYSYKPAETSMSAEELVKHILTSFHLFANVIKEGNASPFQNKQEETETDLNVLAKTYTEKTVAILEQLTEEQLDREIDLTSAFGRKVTGRALLQLAMEHEIHHKGNLFVYVREMGHTELPFYQQRM	not failed
MCRGPLGSYESLTRPSFAFIVISPSATLLTHAPGSQEPHVSRHNRRRSTLHKRATVFGGGTVAVAAVVATVNIASADQVSPTPRTASKADHAVFVQGNELAGNTIHVFRRGDDGKLTAAGKYATGGKGGDQVDAPTDSLASQGSLVYDRRSGRLLALNAGSGTLTSYAVHGQKLTDRQTVPTGGDFPVGIAVSGDLAYVMNAGGAGSVQGFRITTMGLKPLSGSLRTLGLKNEKVPLFSSSPGQAAFTPDGRNLVVTTKSANTVEVFPIGRDGRPAHKPVVNKSAGMVPFAIAFDKTGRMLVAEAAESTVSTYKVRRNGELQVLQKPLPNGQDTLCWLERAGDFFYGGNTGNSTVSGYRMDARGRLALTNEAGIAAAPSAKSQGVIDIAVAADKFVYVQNATSGTVDGFRVGRTGALTKVTTVTDLPAFAESGMEGIAAV	failed
MCSNNNTSSGSYGELQLHDESSGSCRKKQKKDKVRRRGPGVAELEKIRLQEEYKPPLSSSPSLPNIDHHHHTLFAPASSVYDLVMTSPNFSFPEKLASTLPVFPISPDATQNRSMGITPVQETGTTTSNPIAIDSPTSIPRHYPRFIPLGLQYEQQQQKLKDLDETMQWRSKKPFYSFIPSGDPSNDDQEQRPCDLFGSAADHGIDLNLKL	failed
MCSTNKNLACCKGDNVFDGQINGNESYPQVVNKQLPPKVLEPIIQNKIVEIPKEVYLEKIVEVPQIKTVERIVEQIRPVIKYKNVYKPKIVYVEKVKNVDKIIYQEKIVEVPQIKTVEKIVEVPVYVNRERIITVPRYMVVEKVIPVLKTSKRESIMEVPEVNCPHIDISKEVEDKEEIPINELKENQTISLADEKEIQILNDLTSQKVDSNATINMEGEQDTTVDTITQENFCGTVSCNFLPNYPNFSKIGNPLCKGGPEKEKRFSSISIYKSKDSGFPSIRIAKTPQMFQRNLYCSYA	failed
MCTFCSIINRELEGYFVYEDEKFAAILDKYPVSLGHTLVIPKKHFENYLEADEDTLAELAKVVKLVSLGIKDAVKADGLRLLTNIGRSAGQVIFHLHVHIIPTWEGDYPDIFKSFKPRKEQEKEYYELLQKIIRESIENLKRKIGDYKWG	not failed
MCVRLENENFKAELSESGAELTSLKSKNTDNEYIWTANSSYWGRHAPILFPIVGKVKDNKYRIADKVYNLSQHGFARDMEFEVEDNASDRAVFKLVWNDETLEKYPYKFELRVIYVLKDSTVDVTYNVKNVDDKDIFFSIGAHPGFNCPVIGKQSENDELQFEDYYIEFEKRETTGVVKLNSSNLLSRNTSPFLYASNILNLSEKLFKQGALILKDLDSTSISLKNDKNTTSVTVSFEGFPYVGLWSKPEGAPFVCIEPWFGHADYEDFNGDFREKEDGLKLEVGKEFECTYSITIGELEHHHHHH	not failed
MCYTGDMEDVKHPRLTRRGRIYWFRAKVPADLRSHYAPKTEIIYSLKTSDPREALVRVRIASVKADQEFEVARRIPKEEVRTSLSDDEAERLVAIYYQVRLEEDEEIRIGGKQEADLYLGVKAQLEALGIGHANYTNEEAVAEYGLSQREYQKNQETLEFMEPLYREALSTGNTEIIHDELDDILEANSIKLDRTSSQYRKLAFSILKATVKVLDVEKRRNSGEPIDTPPEPPPLFKPAVTAVPANSLRLSEVFERWKVERKPAKRSLMEWDTAIRRFTALYGDKPVESITKAEVVEFKDSLLQQGKAAATVLKQVGAIKSTLQYAVDNGKLSVNPATGVKVAGKRASEVRRLPYDAEDLKAIFSSPVFTCGDRPLAGSGEASFWLPLLALFTGARLNEIGQILVSDVRELDGIHYLDLNTEGEGKSLKNEGSRRKVPLHPEIIRLGFLDYVRKQGESLGSDSRVFDKLEPNSNGVLTANFSKWWGRYARENGIAKGQKVFHSFRHSFKDACRESSLPQDIHDALTGHSPNNVGGRYGQGFTVRRLGEEMAKLSYPGLDLSGLMKP	failed
MDADHLQRIFDEAVQAHGEGRLDEAEAGFRAVLEVLPHEGEALFGLGLTLMGLRRFSEAIPPLKAAAAEPGAEPVRFLCLAQGLYMTGAFAEAAETFAAVAHQDGFNDGARLTWARSAAYAALDDTDADSALALYGQIAGPVAEDLDTVAREGFSTLVAFERLAAARKLGQWLEARAPDDAIRAHELRVLTDPQIDRAPPAYVEALFDAFAERFDHQLLDNLEYQTPTLLAEMIGVADRRFTHMLDLGCGTGLAGPPLRARVARLTGVDLSTAMLAKAAERGGYDALVHAEAVAFLRETPDRFDLIVAADVFSYLGDLGDILAAAAGALSDDGLLAFSVEQGETWWRLLPSARYAHGDDYVRAAGAGVGLEVIQHRQTPLRRQADAAIPGGLYVLRKIRAA	failed
